In patent US20220289850 (published 2022):
Values joined by “and” are separate entries in the source; they are usually repeats but may differ in a detail not shown here. Equal entries are not always repeated.

T1: mouse integrin avb8 (mouse)
T1 chain 1: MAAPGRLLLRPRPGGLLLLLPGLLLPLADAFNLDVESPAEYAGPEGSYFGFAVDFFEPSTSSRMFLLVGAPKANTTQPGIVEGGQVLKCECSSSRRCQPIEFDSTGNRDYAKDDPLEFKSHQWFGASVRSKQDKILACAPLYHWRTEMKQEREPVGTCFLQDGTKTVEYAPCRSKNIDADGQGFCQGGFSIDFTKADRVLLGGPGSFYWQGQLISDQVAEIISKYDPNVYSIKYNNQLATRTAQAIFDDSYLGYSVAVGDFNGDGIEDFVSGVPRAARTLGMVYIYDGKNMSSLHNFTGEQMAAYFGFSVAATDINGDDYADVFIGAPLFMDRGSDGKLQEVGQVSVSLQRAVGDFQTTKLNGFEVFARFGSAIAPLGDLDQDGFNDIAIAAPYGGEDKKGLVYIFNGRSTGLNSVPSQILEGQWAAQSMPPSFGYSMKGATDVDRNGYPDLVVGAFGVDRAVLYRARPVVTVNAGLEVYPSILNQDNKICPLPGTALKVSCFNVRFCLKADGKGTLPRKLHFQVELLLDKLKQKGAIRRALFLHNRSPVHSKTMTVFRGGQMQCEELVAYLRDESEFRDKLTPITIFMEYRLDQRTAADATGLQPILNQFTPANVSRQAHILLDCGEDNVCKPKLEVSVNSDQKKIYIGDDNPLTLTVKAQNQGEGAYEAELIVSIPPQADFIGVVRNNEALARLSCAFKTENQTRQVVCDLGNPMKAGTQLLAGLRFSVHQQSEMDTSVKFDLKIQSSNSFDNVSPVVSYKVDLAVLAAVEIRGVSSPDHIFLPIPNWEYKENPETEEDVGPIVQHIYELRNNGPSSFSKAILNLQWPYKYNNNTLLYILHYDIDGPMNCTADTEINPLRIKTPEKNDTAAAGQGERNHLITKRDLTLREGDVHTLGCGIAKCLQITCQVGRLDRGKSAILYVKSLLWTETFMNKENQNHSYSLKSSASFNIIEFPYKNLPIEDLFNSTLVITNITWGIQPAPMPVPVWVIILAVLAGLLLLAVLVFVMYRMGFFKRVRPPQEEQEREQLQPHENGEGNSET
T1 chain 2: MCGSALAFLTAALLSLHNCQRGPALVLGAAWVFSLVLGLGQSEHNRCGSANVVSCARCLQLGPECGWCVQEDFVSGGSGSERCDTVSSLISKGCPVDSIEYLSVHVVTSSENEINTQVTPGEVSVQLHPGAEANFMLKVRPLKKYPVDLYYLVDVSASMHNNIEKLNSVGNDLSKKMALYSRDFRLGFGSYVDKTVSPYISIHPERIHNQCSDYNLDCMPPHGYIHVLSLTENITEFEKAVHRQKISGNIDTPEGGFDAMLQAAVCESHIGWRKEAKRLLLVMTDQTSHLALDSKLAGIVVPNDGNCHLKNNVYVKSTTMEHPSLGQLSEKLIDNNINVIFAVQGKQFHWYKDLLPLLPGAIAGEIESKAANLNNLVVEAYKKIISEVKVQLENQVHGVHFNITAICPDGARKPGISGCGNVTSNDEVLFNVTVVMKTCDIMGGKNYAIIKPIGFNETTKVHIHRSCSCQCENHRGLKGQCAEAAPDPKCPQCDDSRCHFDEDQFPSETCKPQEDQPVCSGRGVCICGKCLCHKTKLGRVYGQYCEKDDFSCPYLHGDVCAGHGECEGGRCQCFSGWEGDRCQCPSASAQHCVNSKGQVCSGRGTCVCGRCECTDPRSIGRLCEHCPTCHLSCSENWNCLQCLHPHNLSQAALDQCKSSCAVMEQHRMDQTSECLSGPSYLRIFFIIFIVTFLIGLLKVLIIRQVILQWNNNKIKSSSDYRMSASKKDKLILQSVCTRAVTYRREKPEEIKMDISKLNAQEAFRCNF


Target: T1, mouse integrin avb8
Test: SPR 25C

Kd | Binder
< 0.1 nM and 0.137 nM | ADWA11 VH05/VK01 (VH05-2_VK01) Fab (antibody, V domains shown) VH: EVQLVESGGGLVQPGGSLRLSCAASGFNIKDYYMNWVRQAPGKGLEWVGWIDPDNGNTIYDPKFQGRFTISADTSKNSAYLQMNSLRAEDTAVYYCARRLLMDYWGQGTLVTVSS VL: DIQMTQSPSSLSASVGDRVTITCRSTKSLLHFNGNTYLFWYQQKPGKAPKRLIYYMSNLASGVPSRFSGSGSGTDFTLTISSLQPEDFATYYCMQSLEYPFTFGQGTKVEIK
< 0.2 nM | ADWA11 2.4 Fab (antibody, V domains shown) VH: EVQLVESGGGLVQPGGSLRLSCAASGFNIKDYYMNWVRQAPGKGLEWVGWIDPDQGNTIYEPKFQGRFTISADTSKNSAYLQMNSLRAEDTAVYYCARRLLMDYWGQGTLVTVSS VL: DIQMTQSPSSLSASVGDRVTITCRSTKSLSHFNGNTYLFWYQQKPGKAPKRLIYYMSSLASGVPSRFSGSGSGTDFTLTISSLQPEDFATYYCQQSLEYPFTFGGGTKVEIK
0.489 nM | Mouse hybridoma ADWA-11 Fab (antibody, V domains shown) VH: EVQLQQSGAELVRPGAFVKLSCKASGFNIKDYYMNWVLQRPEQGLEWIGWIDPDNGNTIYDPKFQGKASITADTSSNTAYLQLSSLTSEDTAVYYCARRLLMDYWGQGTSVTVSS VL: DIVMTQAAPSVPVTPGESVSISCRSTKSLLHFNGNTYLFWFLQRPGQSPQRLIYYMSNLASGVPDRFSGRGSGTDFTLRISRVEAEDVGVYYCMQSLEYPFTFGTGTKLEIK
